T1: formiminotransferase cyclodeaminase (FTCD), bacterially expressed and purified (rat, UniProt O88618 1-541)
T1 sequence (looked up): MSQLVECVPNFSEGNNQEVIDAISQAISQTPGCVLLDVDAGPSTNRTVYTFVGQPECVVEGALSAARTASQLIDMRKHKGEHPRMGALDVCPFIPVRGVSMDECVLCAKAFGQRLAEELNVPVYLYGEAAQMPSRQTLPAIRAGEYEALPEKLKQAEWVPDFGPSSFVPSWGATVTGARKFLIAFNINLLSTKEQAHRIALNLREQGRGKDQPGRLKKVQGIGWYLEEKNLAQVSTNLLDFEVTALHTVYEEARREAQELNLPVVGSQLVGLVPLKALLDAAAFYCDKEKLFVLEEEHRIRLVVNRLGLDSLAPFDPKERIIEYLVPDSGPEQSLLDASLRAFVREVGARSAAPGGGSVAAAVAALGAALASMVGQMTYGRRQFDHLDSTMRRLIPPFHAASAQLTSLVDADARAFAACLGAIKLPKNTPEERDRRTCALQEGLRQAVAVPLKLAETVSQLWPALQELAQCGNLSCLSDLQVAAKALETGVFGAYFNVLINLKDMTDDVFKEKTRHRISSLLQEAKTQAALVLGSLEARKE

B1: recombinant mouse vimentin, bacterially expressed and purified (natural protein)
chain: not shown
B2: 35S-radiolabeled FTCD generated in vitro by coupled transcription/translation (enzyme, UniProt O88618 1-541, looked up)
chain: T1 sequence (looked up)
modifications: [35S]methionine and [35S]cysteine label

Experiments:
[1] = target: T1, formiminotransferase cyclodeaminase …; experiment: co-sedimentation
[2] = target: T1, formiminotransferase cyclodeaminase …; experiment: far-Western, overlay or dot blot
[3] = target: B1; experiment: far-Western, overlay or dot blot

Binder	binding result [1]	fold bound relative to BSA [2]	fold bound relative to BSA [3]
B1	binds	–	–
B2	–	~6 fold	~10 fold

Reference: paper PMC2198822 (The Journal of Cell Biology, 2001)
